Patent US20220380463A1 (Adimab, published 2022)

Columns and labels:
[1] = molecular target: T1, human CD3 on CD3+ Jurkat cells (human, UniProt P07766 23-207); test: flow cytometry, 100 nM IgG on CD3+ Jurkat cells, pH 7.4
T1 construct: whole, on cells; Native CD3 complex on cells; the other CD3 chains are not specified for this assay; also called Human CD3+ Jurkat
In short: (§1)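 Jurkat cells incubated 20 min on ice with 100 nM yeast-produced IgG in PBS + 0.1% BSA at pH 6.0 or pH 7.4, with all washes and staining at the same pH. Bound antibody detected with anti-human IgG-RPE, dead cells excluded by propidium iodide; MFI measured by flow cytometry.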

[2] = molecular target: T1, human CD3 on CD3+ Jurkat cells; test: flow cytometry, 100 nM IgG on CD3+ Jurkat cells, pH 6.0
In short: as §1

[3] = molecular target: T1, human CD3 on CD3+ Jurkat cells; test: flow cytometry on CD3+ Jurkat cells, ratio of MFI at pH 6.0 to pH 7.4
In short: as §1

T1 sequence (P07766 23-207): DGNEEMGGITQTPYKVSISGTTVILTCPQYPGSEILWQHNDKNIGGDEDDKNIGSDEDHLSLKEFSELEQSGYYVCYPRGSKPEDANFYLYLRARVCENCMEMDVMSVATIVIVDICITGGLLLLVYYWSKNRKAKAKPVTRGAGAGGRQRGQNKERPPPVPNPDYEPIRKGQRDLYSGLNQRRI

Row | Binder | MFI pH 7.4 [1] | MFI pH 6.0 [2] | MFI pH 6.0/MFI pH 7.4 [3]
1 | SAD10319_P01_F03 (ADI-48627) (antibody, V domains shown, IgG; also called Ab246) VH: QVQLVQSGAEVKKPGASVKVSCKASGYTFESYDMHWVRQAPGQRLEWMGWINAGTGATVYSQKFQGRVTITRDTSASTAYMELSSLRSEDTAVYYCARDAYHHYFYDVWGQGTLVTVSS VL: DIVMTQSPDSLAVSLGERATINCKSSQSLLNARTGKNYLAWYQQKPGQPPKLLIYWASTRESGVPDRFSGSGSGTDFTLTISSLQAEDVAVYYCKQSYSRRTFGGGTKVEIK | 45 MFI | 335 MFI | 7.4
2 | SAD10319_P01_H01 (ADI-48623) (antibody, V domains shown, IgG; also called Ab235) VH: QVQLVQSGAEVKKPGASVKVSCKASGYTFDDYAMHWVRQAPGQRLEWMGWIDAGTGDTKYSQKFQGRVTITRDTSASTAYMELSSLRSEDTAVYYCARDHYHRYFYDVWGQGTLVTVSS VL: DIVMTQSPDSLAVSLGERATINCKSSQSLLNARTGKNYLAWYQQKPGQPPKLLIYWASTRESGVPDRFSGSGSGTDFTLTISSLQAEDVAVYYCKQSYSRRTFGGGTKVEIK | 147 MFI | 1760 MFI | 12
3 | SAD10319_P01_C03 (ADI-48626) (antibody, V domains shown, IgG; also called Ab244) VH: QVQLVQSGAEVKKPGASVKVSCKASGYTFTDYDMHWVRQAPGQRLEWMGWIDPYTGATKYSQKFQGRVTITRDTSASTAYMELSSLRSEDTAVYYCARDAYGHYFYDVWGQGTLVTVSS VL: DIVMTQSPDSLAVSLGERATINCKSSQSLLNARTGKNYLAWYQQKPGQPPKLLIYWASTRESGVPDRFSGSGSGTDFTLTISSLQAEDVAVYYCKQSYSRRTFGGGTKVEIK | 369 MFI | 3160 MFI | 8.6
4 | SAD10319_P01_F02 (ADI-48624) (antibody, V domains shown, IgG; also called Ab241) VH: QVQLVQSGAEVKKPGASVKVSCKASGYTFESYDMHWVRQAPGQRLEWMGWIDAGTGNTKYSQKFQGRVTITADESTSTAYMELSSLRSEDTAVYYCARDHYGHYFYDVWGQGTLVTVSS VL: DIVMTQSPDSLAVSLGERATINCKSSQSLLNARTGKNYLAWYQQKPGQPPKLLIYWASTRESGVPDRFSGSGSGTDFTLTISSLQAEDVAVYYCKQSYSRRTFGGGTKVEIK | 58 MFI | 895 MFI | 15.4
5 | SAD10319_P01_A01 (ADI-48619) (antibody, V domains shown, IgG; also called Ab229) VH: QVQLVQSGAEVKKPGASVKVSCKASGYTFASYAMHWVRQAPGQRLEWMGWINPDTGNTVYSQKFQGRVTITRDTSASTAYMELSSLRSEDTAVYYCARDAYHHYFYDVWGQGTLVTVSS VL: DIVMTQSPDSLAVSLGERATINCKSSQSLLNARTGKNYLAWYQQKPGQPPKLLIYWASTRESGVPDRFSGSGSGTDFTLTISSLQAEDVAVYYCKQSYSRRTFGGGTKVEIK | 129 MFI | 1750 MFI | 13.5
6 | SAD10319_P01_C01 (ADI-48621) (antibody, V domains shown, IgG; also called Ab230) VH: QVQLVQSGAEVKKPGASVKVSCKASGYTFTDYDMHWVRQAPGQRLEWMGWIDAGTGLTKYSQKFQGRVTITRDTSASTAYMELSSLRSEDTAVYYCARDHYGHYFYDVWGQGTLVTVSS VL: DIVMTQSPDSLAVSLGERATINCKSSQSLLNARTGKNYLAWYQQKPGQPPKLLIYWASTRESGVPDRFSGSGSGTDFTLTISSLQAEDVAVYYCKQSYSRRTFGGGTKVEIK | 49 MFI | 731 MFI | 14.8
7 | SAD10318_P02_C05 (ADI-48597) (antibody, V domains shown, IgG; also called Ab180) VH: QVQLVQSGAEVKKPGASVKVSCKASGFNIKDYYMHWVRQAPGQRLEWMGWIDLENANTIYDAKFQGRVTITRDTSASTAYMELSSLRSEDTAVYYCARDAHHRYFYDVWGQGTLVTVSS VL: DIVMTQSPDSLAVSLGERATINCKSSQSLLNARTGHNHLAWYQQKPGQPPKLLIYWASTRESGVPDRFSGSGSGTDFTLTISSLQAEDVAVYYCKQSHSHRTFGGGTKVEI | 61 MFI | 1320 MFI | 21.7
8 | SAD10318_P03_E09 (ADI-48611) (antibody, V domains shown, IgG; also called Ab207) VH: QVQLVQSGAEVKKPGASVKVSCKASGFNIKDYYMHWVRQAPGQRLEWMGWIDLENANTIYDAKFQGRVTITRDTSASTAYMELSSLRSEDTAVYYCARDAYGHYHYDVWGQGTLVTVS VL: DIVMTQSPDSLAVSLGERATINCKSSQSLLNARTGHNHLAWYQQKPGQPPKLLIYWASTRESGVPDRFSGSGSGTDFTLTISSLQAEDVAVYYCKQSYHHRTFGGGTKVEIK | 47 MFI | 123 MFI | 2.6

Next, values leading:

Row | MFI pH 7.4 [1] | MFI pH 6.0 [2] | MFI pH 6.0/MFI pH 7.4 [3] | Binder
9 | 38 MFI | 185 MFI | 4.9 | SAD10320_P03_F09 (ADI-48656) (antibody, V domains shown, IgG; also called Ab101) VH: QVQLVQSGAEVKKPGASVKVSCKASGFNIKDYYMHWVRQAPGQRLEWMGWIDLENANTIYDAKFQGRVTITRDTSASTAYMELSSLRSEDTAVYYCARDAYGHDFYDVWGQGTLVTVSS VL: DIVMTQSPDSLAVSLGERATINCKSSQSLLNARTGKNYLAWYQQKPGQPPKLLIYWASTRESGVPDRFSGSGSGTDFTLTISSLQAEDVAVYYCKQSYHRRTFGGGTKVEIK
10 | 107 MFI | 1620 MFI | 15.1 | SAD10319_P02_G06 (ADI-48632) (antibody, V domains shown, IgG; also called Ab15) VH: QVQLVQSGAEVKKPGASVKVSCKASGYTFTSYAMHWVRQAPGQRLEWMGWINPDTGATVYSQKFQGRVTITRDTSASTAYMELSSLRSEDTAVYYCARDAYHHYFYDVWGQGTLVTVSS VL: DIVMTQSPDSLAVSLGERATINCKSSQSLLNARTGKNYLAWYQQKPGQPPKLLIYWASTRESGVPDRFSGSGSGTDFTLTISSLQAEDVAVYYCKQSYSRRTFGGGTKVEIK
11 | 232 MFI | 3100 MFI | 13.4 | SAD10319_P02_D06 (ADI-48631) (antibody, V domains shown, IgG; also called Ab11) VH: QVQLVQSGAEVKKPGASVKVSCKASGYTFTDYAMHWVRQAPGQRLEWMGWINAGTGATIYSQKFQGRVTITRDTSASTAYMELSSLRSEDTAVYYCARDAYHHYFYDVWGQGTLVTVSS VL: DIVMTQSPDSLAVSLGERATINCKSSQSLLNARTGKNYLAWYQQKPGQPPKLLIYWASTRESGVPDRFSGSGSGTDFTLTISSLQAEDVAVYYCKQSYSRRTFGGGTKVEIK
12 | 5060 MFI | 5540 MFI | 1.1 | SAD10319_P02_E05 (ADI-48630) (antibody, V domains shown, IgG; also called Ab4) VH: QVQLVQSGAEVKKPGASVKVSCKASGYTFDSYIMHWVRQAPGQRLEWMGWIDAGTGATVYSQKFQGRVTITRDTSASTAYMELSSLRSEDTAVYYCARDAYGHYFYDHWGQGTLVTVSS VL: DIVMTQSPDSLAVSLGERATINCKSSQSLLNARTGKNYLAWYQQKPGQPPKLLIYWASTRESGVPDRFSGSGSGTDFTLTISSLQAEDVAVYYCKQSYSRRTFGGGTKVEIK
13 | 128 MFI | 1730 MFI | 13.6 | SAD10319_P01_H02 (ADI-48625) (antibody, V domains shown, IgG; also called Ab242) VH: QVQLVQSGAEVKKPGASVKVSCKASGYTFTDYAMHWVRQAPGQRLEWMGWINPSTGATVYSQKFQGRVTITRDTSASTAYMELSSLRSEDTAVYYCARDAYHHYFYDVWGQGTLVTVSS VL: DIVMTQSPDSLAVSLGERATINCKSSQSLLNARTGKNYLAWYQQKPGQPPKLLIYWASTRESGVPDRFSGSGSGTDFTLTISSLQAEDVAVYYCKQSYSRRTFGGGTKVEIK
14 | 499 MFI | 1780 MFI | 3.6 | SAD10319_P02_A05 (ADI-48629) (antibody, V domains shown, IgG; also called Ab255) VH: QVQLVQSGAEVKKPGASVKVSCKASGYTFDSYAMHWVRQAPGQRLEWMGWINPNTGATTYSQKFQGRVTITRDTSASTAYMELSSLRSEDTAVYYCARDHYGHYFYDVWGQGTLVTVSS VL: DIVMTQSPDSLAVSLGERATINCKSSQSLLNARTGKNYLAWYQQKPGQPPKLLIYWASTRESGVPDRFSGSGSGTDFTLTISSLQAEDVAVYYCKQSYSRRTFGGGTKVEIK
15 | 5430 MFI | 6010 MFI | 1.1 | SAD10320_P02_D05 (ADI-48650) (antibody, V domains shown, IgG; also called Ab77) VH: QVQLVQSGAEVKKPGASVKVSCKASGFNIKDYYMHWVRQAPGQRLEWMGWIDLENANTIYDAKFQGRVTITRDTSASTAYMELSSLRSEDTAVYYCARDATHRYFYDVWGQGTLVTVSS VL: DIVMTQSPDSLAVSLGERATINCKSSQSLLNARTGKNYLAWYQQKPGQPPKLLIYWASTRESGVPDRFSGSGSGTDFTLTISSLQAEDVAVYYCKQSHTRRTFGGGTKVEI
16 | 67 MFI | 786 MFI | 11.7 | SAD10320_P04_E10 (ADI-48657) (antibody, V domains shown, IgG; also called Ab106) VH: QVQLVQSGAEVKKPGASVKVSCKASGFNIKDYYMHWVRQAPGQRPEWMGWIDLENANTIYDAKFQGRVTITRDTSASTAYMELSSLRSEDTAVYYCARDAYGHDFYDVWGQGTLVTVSS VL: DIVMTQSPDSLAVSLGERATINCKSSQSLLNARTGKNYLAWYQQKPGQPPKLLIYWASTRESGVPDRFSGSGSGTDFTLTISSLQAEDVAVYYCKQSYSRRTFGGGTKVEIK
17 | 316 MFI | 113 MFI | 0.4 | SAD10320_P04_G10 (ADI-48658) (antibody, V domains shown, IgG; also called Ab108) VH: QVQLVQSGAEVKKPGASVKVSCKASGFNIKDYYMHWVRQAPGQRLEWMGWIDLENANTIYDAKFQGRVTITRDTSASTAYMELSSLRSEDTAVYYCARDAYGHDFYDVWGQGTLVTVSS VL: DIVMTQSPDSLAVSLGERATINCKSSQSLLNARTGKNYLAWYQQKPGQPPKLLIYWASTRESGVPDRFSGSGSGTDFTLTISSLQAEDVAVYYCKQSYSRRTFGGGTKVEIK
18 | 44 MFI | 81 MFI | 1.8 | SAD10320_P04_H11 (ADI-48662) (antibody, V domains shown, IgG; also called Ab116) VH: QVQLVQSGAEVKKPGASVKVSCKASGFNIKDYYMHWVRQAPGQRLEWMGWIDLENANTIYDAKFQGRVTITRDTSASTAYMELSSLRSEDTAVYYCARDAYGHVFYDVWGQGTLVTVSS VL: DIVMTQSPDSLAVSLGERATINCKSSQSLLNARTGKNYLAWYQQKPGQPPKLLIYWASTRESGVPDRFSGSGSGTDFTLTISSLQAEDVAVYYCKQSYQHRTFGGGTKVEIK
